# Results from PMC9605926, “Safety of [^177Lu]Lu-NeoB treatment: a preclinical study characterizing absorbed dose and acute, early, and late organ toxicity” (European Journal of Nuclear Medicine and Molecular Imaging, 2022).
# System: healthy Balb/c mice
# Assay: Toxicity study, histopathology (5-point grade); 3 i.v. injections at 7-day interval; control group 2 = 3× 1200 pmol [175Lu]Lu-NeoB; treatment groups 1/2/3 = 3× 40 MBq/400 pmol, 80 MBq/800 pmol, 120 MBq/1200 pmol [177Lu]Lu-NeoB
# Type: in vivo, mouse
# Procedure: Five different experimental groups (10 male and 10 female healthy animals per group; n = 100) were included in the radiotoxicity study and treated as follows: control group 1: 3 × vehicle (PBS + kolliphor HS 15 (1 mg/mL)); control group 2: 3 × 1200 pmol [^175Lu]Lu-NeoB; treatment group 1: 3 × 40 MBq/400 pmol [^177Lu]Lu-NeoB; treatment group 2: 3 × 80 MBq/800 pmol [^177Lu]Lu-NeoB; and treatment group 3: 3 × 120 MBq/1200 pmol [^177Lu]Lu-NeoB.
# Animals received 3 injections with an interval of 7 days between each injection.
# At 5, 19, and 43 weeks after the first injection, 3–4 male and 3–4 female animals of each group were sacrificed by isoflurane overdose after a blood sample was taken by retro-orbital puncture. Hereafter, the axillary lymph nodes, mesenteric lymph nodes, skin, mammary fat pad, sternum, pancreas, adrenal glands, kidneys, spleen, liver, gallbladder, stomach, duodenum, jejunum, ileum, caecum, colon, rectum, testes (M), epididymis (M), seminal vesicles (M), prostate gland (M), ovaries (F), oviducts (F), uterus-cervix (F), vagina (F), bladder, ureters, sciatic nerve, skeletal muscle, femur, lungs, trachea, esophagus, thymus, thyroid gland, aorta, heart, brain, pituitary gland, eyes, harderian glands, tongue, spinal column, and the tail were collected and analyzed macroscopically. All organs and tissues were formalin fixed (4% buffered formaldehyde) and shipped to the European Research Biology Centre (ERBC, Pomezia, Rome, Italy) where histological sampling, embedding, sectioning (5 µm thick), and hematoxylin–eosin staining were performed according to standard guidelines. All organs and tissues were analyzed microscopically by an experienced pathologist. A 5-point grading scale was used: 1: minimal change, 2: mild change, 3: moderate change, 4: marked change, 5: severe change.
# [1] = female wk 5, treatment group 1, grade 1
# [2] = female wk 5, treatment group 1, grade 2
# [3] = female wk 5, treatment group 2, grade 1
# [4] = female wk 5, treatment group 2, grade 2
# [5] = female wk 5, treatment group 3, grade 1
# [6] = female wk 5, treatment group 3, grade 2
# [7] = female wk 19, treatment group 1, grade 1
# [8] = female wk 19, treatment group 1, grade 2
# [9] = female wk 19, treatment group 2, grade 1
# [10] = female wk 19, treatment group 2, grade 2
# [11] = female wk 19, treatment group 3, grade 1
# [12] = female wk 19, treatment group 3, grade 2
# [13] = female wk 43, treatment group 1, grade 1
# [14] = female wk 43, treatment group 1, grade 4
# [15] = female wk 43, treatment group 2, grade 1
# [16] = female wk 43, treatment group 2, grade 2
# [17] = female wk 43, treatment group 3, grade 2
# [18] = female wk 43, treatment group 3, grade 3
# [19] = female wk 43, treatment group 3, grade 4
# [20] = male wk 5, treatment group 1, grade 1
# [21] = male wk 5, treatment group 1, grade 2
smiles,measurement,setting,value
"CC(C)CC(CC(C)C)NC(=O)[C@H](Cc1cnc[nH]1)NC(=O)CNC(=O)[C@@H](NC(=O)[C@H](C)NC(=O)[C@H](Cc1c[nH]c2ccccc12)NC(=O)[C@H](CCC(N)=O)NC(=O)[C@@H](Cc1ccccc1)NC(=O)COCC(=O)Nc1ccc(CNC(=O)CN2CCN(CC(=O)O)CCN(CC(=O)O)CCN(CC(=O)O)CC2)cc1)C(C)C [[^177Lu]Lu-NeoB, metal not drawn]","Adrenal glands subcapsular cell hyperplasia, incidence",[1],1/3
same,"Urinary bladder inflammatory cell foci, incidence",[1],1/3
same,"Adrenal glands subcapsular cell hyperplasia, incidence",[2],1/3
same,"Spleen extramedullary haematopoiesis, incidence",[2],2/3
same,"Adrenal glands subcapsular cell hyperplasia, incidence",[3],3/3
same,"Liver inflammatory cell foci, incidence",[3],1/3
same,"Urinary bladder inflammatory cell foci, incidence",[3],1/3
same,"Urinary bladder urothelium vacuolation, incidence",[3],2/3
same,"Urinary bladder inflammatory cell foci, incidence",[4],2/3
same,"Urinary bladder urothelium vacuolation, incidence",[4],1/3
same,"Adrenal glands subcapsular cell hyperplasia, incidence",[5],1/3
same,"Liver inflammatory cell foci, incidence",[5],1/3
same,"Thyroid gland follicular cyst/s, incidence",[5],1/3
same,"Urinary bladder inflammatory cell foci, incidence",[5],1/3
same,"Urinary bladder urothelium vacuolation, incidence",[5],1/3
same,"Spleen extramedullary haematopoiesis, incidence",[6],1/3
same,"Urinary bladder inflammatory cell foci, incidence",[6],2/3
same,"Urinary bladder urothelium vacuolation, incidence",[6],2/3
same,"Brain artifacts, incidence","female wk 5, treatment group 3, grade 3",1/3
same,"Adrenal glands subcapsular cell hyperplasia, incidence",[7],1/3
same,"Liver inflammatory cell foci, incidence",[7],1/3
same,"Pancreas inflammatory cell foci, incidence",[7],2/3
same,"Urinary bladder inflammatory cell foci, incidence",[7],2/3
same,"Urinary bladder urothelium vacuolation, incidence",[7],2/3
same,"Adrenal glands subcapsular cell hyperplasia, incidence",[8],2/3
same,"Liver inflammatory cell foci, incidence",[8],1/3
same,"Urinary bladder inflammatory cell foci, incidence",[8],1/3
same,"Kidneys hydronephrosis, incidence","female wk 19, treatment group 1, grade 4",1/3
same,"Adrenal glands subcapsular cell hyperplasia, incidence",[9],2/3
same,"Liver inflammatory cell foci, incidence",[9],2/3
same,"Pancreas inflammatory cell foci, incidence",[9],1/3
same,"Urinary bladder inflammatory cell foci, incidence",[9],2/3
same,"Urinary bladder urothelium vacuolation, incidence",[9],2/3
same,"Adrenal glands subcapsular cell hyperplasia, incidence",[10],1/3
same,"Spleen extramedullary haematopoiesis, incidence",[10],1/3
same,"Urinary bladder urothelium vacuolation, incidence",[10],1/3
same,"Adrenal glands subcapsular cell hyperplasia, incidence",[11],1/3
same,"Pancreas inflammatory cell foci, incidence",[11],1/3
same,"Urinary bladder inflammatory cell foci, incidence",[11],1/3
same,"Urinary bladder urothelium vacuolation, incidence",[11],1/3
same,"Adrenal glands subcapsular cell hyperplasia, incidence",[12],2/3
same,"Kidneys nephropathy, incidence",[12],1/3
same,"Pancreas inflammatory cell foci, incidence",[12],1/3
same,"Ureter(s) dilatation, incidence",[12],1/3
same,"Urinary bladder inflammatory cell foci, incidence",[12],1/3
same,"Urinary bladder urothelium vacuolation, incidence",[12],1/3
same,"Urinary bladder inflammatory cell foci, incidence","female wk 19, treatment group 3, grade 3",1/3
same,"Kidneys hydronephrosis, incidence","female wk 19, treatment group 3, grade 4",3/3
same,"Urinary bladder inflammatory cell foci, incidence",[13],1/3
same,"Urinary bladder urothelium vacuolation, incidence",[13],1/3
same,"Adrenal glands subcapsular cell hyperplasia, incidence","female wk 43, treatment group 1, grade 2",2/3
same,"Adrenal glands subcapsular cell hyperplasia, incidence","female wk 43, treatment group 1, grade 3",1/3
same,"Ovaries atrophy, incidence",[14],3/3
same,"Uterus endometrial hyperplasia, incidence",[14],3/3
same,"Liver inflammatory cell foci, incidence",[15],3/4
same,"Urinary bladder inflammatory cell foci, incidence",[15],1/4
same,"Urinary bladder urothelium vacuolation, incidence",[15],1/4
same,"Adrenal glands subcapsular cell hyperplasia, incidence",[16],3/4
same,"Lungs alveolar epithelialization, incidence",[16],1/4
same,"Adrenal glands subcapsular cell hyperplasia, incidence","female wk 43, treatment group 2, grade 3",1/4
same,"Ovaries atrophy, incidence","female wk 43, treatment group 2, grade 4",3/4
same,"Kidneys hydronephrosis, incidence","female wk 43, treatment group 2, grade 5",1/4
same,"Adrenal glands subcapsular cell hyperplasia, incidence",[17],4/4
same,"Pancreas inflammatory cell foci, incidence",[17],1/4
same,"Urinary bladder mineralization, incidence",[17],1/4
same,"Lungs B-adenoma, incidence",[18],1/4
same,"Ureter(s) dilation, incidence",[18],1/4
same,"Kidneys hydronephrosis, incidence",[19],1/4
same,"Ovaries atrophy, incidence",[19],4/4
same,"Kidneys hydronephrosis, incidence","female wk 43, treatment group 3, grade 5",1/4
same,"Adrenal glands subcapsular cell hyperplasia, incidence",[20],1/3
same,"Pancreas acinar cell degeneration, incidence",[20],1/3
same,"Spleen extramedullary haematopoiesis, incidence",[21],2/3
same,"Testes germ cell depletion, incidence",[21],1/3
